T1: DLG3_2, Q92796
T1 sequence (Q92796 221-321, limits assumed, looked up): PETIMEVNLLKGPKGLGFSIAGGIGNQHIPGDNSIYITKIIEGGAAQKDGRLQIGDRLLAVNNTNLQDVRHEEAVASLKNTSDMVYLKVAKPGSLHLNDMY

T2: GRIP1_2, Q9Y3R0
T2 sequence (Q9Y3R0 145-248, limits assumed, looked up): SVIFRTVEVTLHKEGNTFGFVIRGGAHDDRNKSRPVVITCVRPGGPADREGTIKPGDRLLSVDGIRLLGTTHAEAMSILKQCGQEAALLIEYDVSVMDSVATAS

T3: LNX2_2, Q8N448
T3 sequence (Q8N448 334-432, limits assumed, looked up): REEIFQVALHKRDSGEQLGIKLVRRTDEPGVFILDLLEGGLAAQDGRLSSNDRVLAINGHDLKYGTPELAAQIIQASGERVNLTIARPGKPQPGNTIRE

T4: APBA3_1, O96018
T4 sequence (O96018 389-490, limits assumed, looked up): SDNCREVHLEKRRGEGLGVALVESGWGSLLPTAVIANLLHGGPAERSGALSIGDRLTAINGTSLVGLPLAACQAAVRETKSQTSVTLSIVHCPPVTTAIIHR

T5: TX1BP3, O14907
T5 sequence (O14907 10-122, limits assumed, looked up): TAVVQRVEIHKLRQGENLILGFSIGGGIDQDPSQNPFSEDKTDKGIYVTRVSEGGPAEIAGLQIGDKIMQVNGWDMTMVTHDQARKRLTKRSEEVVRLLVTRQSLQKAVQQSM

T6: DLG3_1, Q92796
T6 sequence (Q92796 125-227, limits assumed, looked up): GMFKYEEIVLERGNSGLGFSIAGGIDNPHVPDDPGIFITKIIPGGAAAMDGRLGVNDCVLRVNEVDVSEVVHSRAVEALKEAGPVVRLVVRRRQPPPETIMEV

T7: RADIL, Q96JH8
T7 sequence (Q96JH8 971-1071, limits assumed, looked up): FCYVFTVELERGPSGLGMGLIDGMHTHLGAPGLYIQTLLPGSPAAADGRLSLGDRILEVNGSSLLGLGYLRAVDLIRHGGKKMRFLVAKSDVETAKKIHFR

T8: APBA1_1, Q02410
T8 sequence (Q02410 651-752, limits assumed, looked up): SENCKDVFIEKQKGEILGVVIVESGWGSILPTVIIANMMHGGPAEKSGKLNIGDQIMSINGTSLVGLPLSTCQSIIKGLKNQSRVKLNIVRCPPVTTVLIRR

T9: MPP2, Q14168
T9 sequence (Q14168 180-250, limits assumed, looked up): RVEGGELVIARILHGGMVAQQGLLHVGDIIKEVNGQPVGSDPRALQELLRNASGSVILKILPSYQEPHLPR

T10: SNTB1, Q13884
T10 sequence (Q13884 107-205, limits assumed, looked up): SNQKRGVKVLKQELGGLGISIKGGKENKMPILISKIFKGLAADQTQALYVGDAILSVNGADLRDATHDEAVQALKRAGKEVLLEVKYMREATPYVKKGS

T11: APBA1_2, Q02410
T11 sequence (Q02410 742-832, limits assumed, looked up): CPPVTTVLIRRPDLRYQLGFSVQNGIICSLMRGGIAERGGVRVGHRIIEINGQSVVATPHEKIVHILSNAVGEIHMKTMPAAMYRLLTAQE

T12: MPDZ_5, O75970
T12 sequence (O75970 695-796, limits assumed, looked up): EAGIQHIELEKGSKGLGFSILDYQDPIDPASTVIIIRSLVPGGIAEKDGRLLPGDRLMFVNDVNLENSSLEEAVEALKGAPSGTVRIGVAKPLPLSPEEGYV

B1: PRLHR, P49683 (peptide)
chain: GQNMTVSVVI
B2: CLDN20, P56880 (peptide)
chain: NSTHNLKDYV

Target: T1, DLG3_2, Q92796
Experiment: holdup assay
Design: key: below the threshold = too weak to quantify, mostly under pKd 3.1 to 4
Conditions: plain residues with an end cap or a label only (N-terminal biotin on a linker: ado-ado)

pKd | Binder
4.31 | B1
below the threshold | B2

Target: TJP1_2, Q07157
Sequence (Q07157 181-274): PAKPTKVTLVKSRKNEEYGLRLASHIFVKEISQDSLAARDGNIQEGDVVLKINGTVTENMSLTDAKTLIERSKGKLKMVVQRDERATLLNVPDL
Experiment: holdup assay
Design: key: below the threshold = too weak to quantify, mostly under pKd 3.1 to 4
Conditions: plain residues with an end cap or a label only (N-terminal biotin on a linker: ado-ado)

pKd | Binder
3.69 | B1
below the threshold | B2

Target: LNX1_2, Q8TBB1
Sequence (Q8TBB1 371-470): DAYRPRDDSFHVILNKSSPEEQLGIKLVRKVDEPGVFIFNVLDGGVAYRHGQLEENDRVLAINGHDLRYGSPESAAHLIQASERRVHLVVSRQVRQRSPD
Experiment: holdup assay
Design: key: below the threshold = too weak to quantify, mostly under pKd 3.1 to 4
Conditions: plain residues with an end cap or a label only (N-terminal biotin on a linker: ado-ado)

pKd | Binder
3.54 | B1
below the threshold | B2

Target: T2, GRIP1_2, Q9Y3R0
Experiment: holdup assay
Design: key: below the threshold = too weak to quantify, mostly under pKd 3.1 to 4
Conditions: plain residues with an end cap or a label only (N-terminal biotin on a linker: ado-ado)

pKd | Binder
below the threshold | B1
below the threshold | B2

Target: T3, LNX2_2, Q8N448
Experiment: holdup assay
Design: key: below the threshold = too weak to quantify, mostly under pKd 3.1 to 4
Conditions: plain residues with an end cap or a label only (N-terminal biotin on a linker: ado-ado)

pKd | Binder
5.11 | B1
4.12 | B2

Target: T4, APBA3_1, O96018
Experiment: holdup assay
Design: key: below the threshold = too weak to quantify, mostly under pKd 3.1 to 4
Conditions: plain residues with an end cap or a label only (N-terminal biotin on a linker: ado-ado)

pKd | Binder
below the threshold | B1
below the threshold | B2

Target: DLG4_3, P78352
Sequence (P78352 306-403): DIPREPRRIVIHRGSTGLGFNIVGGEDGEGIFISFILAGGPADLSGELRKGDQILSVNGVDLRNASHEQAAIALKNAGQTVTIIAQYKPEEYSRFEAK
Experiment: holdup assay
Design: key: below the threshold = too weak to quantify, mostly under pKd 3.1 to 4
Conditions: plain residues with an end cap or a label only (N-terminal biotin on a linker: ado-ado)

pKd | Binder
below the threshold | B1
below the threshold | B2

Target: PICK1, Q9NRD5
Sequence (Q9NRD5 17-115): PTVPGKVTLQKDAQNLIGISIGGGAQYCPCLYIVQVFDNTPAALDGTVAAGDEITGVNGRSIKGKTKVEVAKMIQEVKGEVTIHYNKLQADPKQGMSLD
Experiment: holdup assay
Design: key: below the threshold = too weak to quantify, mostly under pKd 3.1 to 4
Conditions: plain residues with an end cap or a label only (N-terminal biotin on a linker: ado-ado)

pKd | Binder
below the threshold | B1
below the threshold | B2

Target: PDZRN4_1, Q6ZMN7
Sequence (Q6ZMN7 213-318): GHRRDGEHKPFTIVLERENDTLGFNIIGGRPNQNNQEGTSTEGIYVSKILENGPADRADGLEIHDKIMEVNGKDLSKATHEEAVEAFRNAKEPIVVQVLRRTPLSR
Experiment: holdup assay
Design: key: below the threshold = too weak to quantify, mostly under pKd 3.1 to 4
Conditions: plain residues with an end cap or a label only (N-terminal biotin on a linker: ado-ado)

pKd | Binder
below the threshold | B1
below the threshold | B2

Target: DLG2_2, Q15700
Sequence (Q15700 189-283): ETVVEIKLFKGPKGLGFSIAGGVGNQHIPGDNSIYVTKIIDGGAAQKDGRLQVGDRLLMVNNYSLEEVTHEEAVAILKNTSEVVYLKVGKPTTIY
Experiment: holdup assay
Design: key: below the threshold = too weak to quantify, mostly under pKd 3.1 to 4
Conditions: plain residues with an end cap or a label only (N-terminal biotin on a linker: ado-ado)

pKd | Binder
below the threshold | B1
below the threshold | B2

Target: T5, TX1BP3, O14907
Experiment: holdup assay
Design: key: below the threshold = too weak to quantify, mostly under pKd 3.1 to 4
Conditions: plain residues with an end cap or a label only (N-terminal biotin on a linker: ado-ado)

pKd | Binder
below the threshold | B1
below the threshold | B2

Target: T6, DLG3_1, Q92796
Experiment: holdup assay
Design: key: below the threshold = too weak to quantify, mostly under pKd 3.1 to 4
Conditions: plain residues with an end cap or a label only (N-terminal biotin on a linker: ado-ado)

pKd | Binder
below the threshold | B1
below the threshold | B2

Target: CASK, O14936
Sequence (O14936 487-570): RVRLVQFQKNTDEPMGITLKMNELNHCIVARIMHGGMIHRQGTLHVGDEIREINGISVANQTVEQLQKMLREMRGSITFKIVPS
Experiment: holdup assay
Design: key: below the threshold = too weak to quantify, mostly under pKd 3.1 to 4
Conditions: plain residues with an end cap or a label only (N-terminal biotin on a linker: ado-ado)

pKd | Binder
below the threshold | B1
below the threshold | B2

Target: T7, RADIL, Q96JH8
Experiment: holdup assay
Design: key: below the threshold = too weak to quantify, mostly under pKd 3.1 to 4
Conditions: plain residues with an end cap or a label only (N-terminal biotin on a linker: ado-ado)

pKd | Binder
4.26 | B1
3.85 | B2

Target: ARHGEF12, Q9NZN5-2
Sequence (Q9NZN5 other isoform, or with tags, fused parts or gaps): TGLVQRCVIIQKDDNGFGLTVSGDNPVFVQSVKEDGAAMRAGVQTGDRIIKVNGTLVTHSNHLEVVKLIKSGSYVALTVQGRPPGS
Experiment: holdup assay
Design: key: below the threshold = too weak to quantify, mostly under pKd 3.1 to 4
Conditions: plain residues with an end cap or a label only (N-terminal biotin on a linker: ado-ado)

pKd | Binder
4.13 | B1
below the threshold | B2

Target: T8, APBA1_1, Q02410
Experiment: holdup assay
Design: key: below the threshold = too weak to quantify, mostly under pKd 3.1 to 4
Conditions: plain residues with an end cap or a label only (N-terminal biotin on a linker: ado-ado)

pKd | Binder
below the threshold | B1
below the threshold | B2

Target: TJP2_1, Q9UDY2
Sequence (Q9UDY2 24-128): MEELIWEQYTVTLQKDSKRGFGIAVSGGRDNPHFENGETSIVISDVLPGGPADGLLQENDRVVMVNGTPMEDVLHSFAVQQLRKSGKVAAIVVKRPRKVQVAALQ
Experiment: holdup assay
Design: key: below the threshold = too weak to quantify, mostly under pKd 3.1 to 4
Conditions: plain residues with an end cap or a label only (N-terminal biotin on a linker: ado-ado)

pKd | Binder
below the threshold | B1
3.8 | B2

Target: MAGI2_4, Q86UL8
Sequence (Q86UL8 772-865): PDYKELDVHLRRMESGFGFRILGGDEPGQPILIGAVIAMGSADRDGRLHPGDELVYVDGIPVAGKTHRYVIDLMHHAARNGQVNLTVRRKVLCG
Experiment: holdup assay
Design: key: below the threshold = too weak to quantify, mostly under pKd 3.1 to 4
Conditions: plain residues with an end cap or a label only (N-terminal biotin on a linker: ado-ado)

pKd | Binder
below the threshold | B1
below the threshold | B2

Target: LAP2, Q96RT1
Sequence (Q96RT1 other isoform, or with tags, fused parts or gaps): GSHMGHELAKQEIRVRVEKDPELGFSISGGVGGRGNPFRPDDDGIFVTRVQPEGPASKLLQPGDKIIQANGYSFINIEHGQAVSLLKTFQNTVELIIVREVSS
Experiment: holdup assay
Design: key: below the threshold = too weak to quantify, mostly under pKd 3.1 to 4
Conditions: plain residues with an end cap or a label only (N-terminal biotin on a linker: ado-ado)

pKd | Binder
below the threshold | B1
below the threshold | B2

Target: T9, MPP2, Q14168
Experiment: holdup assay
Design: key: below the threshold = too weak to quantify, mostly under pKd 3.1 to 4
Conditions: plain residues with an end cap or a label only (N-terminal biotin on a linker: ado-ado)

pKd | Binder
below the threshold | B1
below the threshold | B2

Target: T10, SNTB1, Q13884
Experiment: holdup assay
Design: key: below the threshold = too weak to quantify, mostly under pKd 3.1 to 4
Conditions: plain residues with an end cap or a label only (N-terminal biotin on a linker: ado-ado)

pKd | Binder
4.15 | B1
below the threshold | B2

Target: T11, APBA1_2, Q02410
Experiment: holdup assay
Design: key: below the threshold = too weak to quantify, mostly under pKd 3.1 to 4
Conditions: plain residues with an end cap or a label only (N-terminal biotin on a linker: ado-ado)

pKd | Binder
3.87 | B1
3.69 | B2

Target: DLG1_2, Q12959
Sequence (Q12959 314-412): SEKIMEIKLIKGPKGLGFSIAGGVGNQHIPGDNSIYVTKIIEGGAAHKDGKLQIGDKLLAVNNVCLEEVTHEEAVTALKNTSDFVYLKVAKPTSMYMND
Experiment: holdup assay
Design: key: below the threshold = too weak to quantify, mostly under pKd 3.1 to 4
Conditions: plain residues with an end cap or a label only (N-terminal biotin on a linker: ado-ado)

pKd | Binder
below the threshold | B1
3.5 | B2

Target: Inadl_10, Q8NI35
Sequence (Q8NI35 1673-1763): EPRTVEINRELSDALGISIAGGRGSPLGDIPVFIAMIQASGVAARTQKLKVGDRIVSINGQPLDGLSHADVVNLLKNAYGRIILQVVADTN
Experiment: holdup assay
Design: key: below the threshold = too weak to quantify, mostly under pKd 3.1 to 4
Conditions: plain residues with an end cap or a label only (N-terminal biotin on a linker: ado-ado)

pKd | Binder
below the threshold | B1
below the threshold | B2

Target: T12, MPDZ_5, O75970
Experiment: holdup assay
Design: key: below the threshold = too weak to quantify, mostly under pKd 3.1 to 4
Conditions: plain residues with an end cap or a label only (N-terminal biotin on a linker: ado-ado)

pKd | Binder
below the threshold | B1
below the threshold | B2

Target: MAGI3_2, Q5TCQ9
Sequence (Q5TCQ9 398-503): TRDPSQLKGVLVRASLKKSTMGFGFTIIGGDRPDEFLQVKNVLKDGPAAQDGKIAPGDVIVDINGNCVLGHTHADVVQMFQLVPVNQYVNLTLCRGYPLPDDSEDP
Experiment: holdup assay
Design: key: below the threshold = too weak to quantify, mostly under pKd 3.1 to 4
Conditions: plain residues with an end cap or a label only (N-terminal biotin on a linker: ado-ado)

pKd | Binder
below the threshold | B1
below the threshold | B2
